Among the data in paper PMC5414174, “DNA replication licensing factor Cdc6 and Plk4 kinase antagonistically regulate centrosome duplication via Sas-6” (Nature Communications, 2017) are ratio to parent values, retold here.

Sequences and labels used below:
B1: GFP-tagged Cdc6 WT [human] / Myc-tagged Sas-6 [human] (parent)
chain 1: MPQTRSQAQATISFPKRKLSRALNKAKNSSDAKLEPTNVQTVTCSPRVKALPLSPRKRLGDDNLCNTPHLPPCSPPKQGKKENGPPHSHTLKGRRLVFDNQLTIKSPSKRELAKVHQNKILSSVRKSQEITTNSEQRCPLKKESACVRLFKQEGTCYQQAKLVLNTAVPDRLPAREREMDVIRNFLREHICGKKAGSLYLSGAPGTGKTACLSRILQDLKKELKGFKTIMLNCMSLRTAQAVFPAIAQEICQEEVSRPAGKDMMRKLEKHMTAEKGPMIVLVLDEMDQLDSKGQDVLYTLFEWPWLSNSHLVLIGIANTLDLTDRILPRLQAREKCKPQLLNFPPYTRNQIVTILQDRLNQVSRDQVLDNAAVQFCARKVSAVSGDVRKALDVCRRAIEIVESDVKSQTILKPLSECKSPSEPLIPKRVGLIHISQVISEVDGNRMTLSQEGAQDSFPLQQKILVCSLMLLIRQLKIKEVTLGKLYEAYSKVCRKQQVAAVDQSECLSLSGLLEARGILGLKRNKETRLTKVFFKIEEKEIEHALKDKALIGNILATGLP
chain 2: MSQVLFHQLVPLQVKCKDCEERRVSIRMSIELQSVSNPVHRKDLVIRLTDDTDPFFLYNLVISEEDFQSLKFQQGLLVDFLAFPQKFIDLLQQCTQEHAKEIPRFLLQLVSPAAILDNSPAFLNVVETNPFKHLTHLSLKLLPGNDVEIKKFLAGCLKCSKEEKLSLMQSLDDATKQLDFTRKTLAEKKQELDKLRNEWASHTAALTNKHSQELTNEKEKALQAQVQYQQQHEQQKKDLEILHQQNIHQLQNRLSELEAANKDLTERKYKGDSTIRELKAKLSGVEEELQRTKQEVLSLRRENSTLDVECHEKEKHVNQLQTKVAVLEQEIKDKDQLVLRTKEAFDTIQEQKVVLEENGEKNQVQLGKLEATIKSLSAELLKANEIIKKLQGDLKTLMGKLKLKNTVTIQQEKLLAEKEEKLQKEQKELQDVGQSLRIKEQEVCKLQEQLEATVKKLEESKQLLKNNEKLITWLNKELNENQLVRKQDVLGPSTTPPAHSSSNTIRSGISPNLNVVDGRLTYPTCGIGYPVSSAFAFQNTFPHSISAKNTSHPGSGTKVQFNLQFTKPNASLGDVQSGATISMPCSTDKENGENVGLESKYLKKREDSIPLRGLSQNLFSNSDHQRDGTLGALHTSSKPTALPSASSAYFPGQLPNS

The variants in the assay derive from B1. Put plainly: co-immunoprecipitation (anti-GFP IP, western blot quantified by ImageJ). As to conditions: with Myc-tagged Sas-6 [human]; HEK293 cells co-transfected; three independent experiments; means ± s.d.; read off a plot. A general note: In western blotting, separated proteins are transferred to a membrane and probed.
Consider chain 1 MPQTRSQAQATISFPKRKLSRALNKAKNSDDAKLEPTNVQTVTCSPRVKALPLSPRKRLGDDNLCNTPHLPPCSPPKQGKKENGPPHSHTLKGRRLVFDNQLTIKSPSKRELAKVHQNKILSSVRKSQEITTNSEQRCPLKKESACVRLFKQEGTCYQQAKLVLNTAVPDRLPAREREMDVIRNFLREHICGKKAGSLYLSGAPGTGKTACLSRILQDLKKELKGFKTIMLNCMSLRTAQAVFPAIAQEICQEEVSRPAGKDMMRKLEKHMTAEKGPMIVLVLDEMDQLDSKGQDVLYTLFEWPWLSNSHLVLIGIANTLDLTDRILPRLQAREKCKPQLLNFPPYTRNQIVTILQDRLNQVSRDQVLDNAAVQFCARKVSAVSGDVRKALDVCRRAIEIVESDVKSQTILKPLSECKSPSEPLIPKRVGLIHISQVISEVDGNRMTLSQEGAQDSFPLQQKILVCSLMLLIRQLKIKEVTLGKLYEAYSKVCRKQQVAAVDQSECLSLSGLLEARGILGLKRNKEDRLTKVFFKIEEKEIEHALKDKALIGNILATGLP [chain 1 S30D T527D], for which the ratio to parent came out at 0.42.

With chain 1 MPQTRSQAQATISFPKRKLSRALNKAKNSADAKLEPTNVQTVTCSPRVKALPLSPRKRLGDDNLCNTPHLPPCSPPKQGKKENGPPHSHTLKGRRLVFDNQLTIKSPSKRELAKVHQNKILSSVRKSQEITTNSEQRCPLKKESACVRLFKQEGTCYQQAKLVLNTAVPDRLPAREREMDVIRNFLREHICGKKAGSLYLSGAPGTGKTACLSRILQDLKKELKGFKTIMLNCMSLRTAQAVFPAIAQEICQEEVSRPAGKDMMRKLEKHMTAEKGPMIVLVLDEMDQLDSKGQDVLYTLFEWPWLSNSHLVLIGIANTLDLTDRILPRLQAREKCKPQLLNFPPYTRNQIVTILQDRLNQVSRDQVLDNAAVQFCARKVSAVSGDVRKALDVCRRAIEIVESDVKSQTILKPLSECKSPSEPLIPKRVGLIHISQVISEVDGNRMTLSQEGAQDSFPLQQKILVCSLMLLIRQLKIKEVTLGKLYEAYSKVCRKQQVAAVDQSECLSLSGLLEARGILGLKRNKEARLTKVFFKIEEKEIEHALKDKALIGNILATGLP [chain 1 S30A T527A], the ratio to parent came to 1.7.
